Measurements as given in article PMC8565784.

What was measured:
[1] = pQC-Fluc PV neutralisation; conditions: glycan gained; control: Q23 SOS gp160ΔCT parent
[2] = SDS-PAGE-Western blot of VLP Env; conditions: glycan gained; control: Q23 SOS gp160ΔCT parent

Row | Substance | other: neutralisation sensitivity [1] | expression_or_secretion [2]
1 | Q23 Env: D49N | increases | increases
2 | Q23 Env: D49N+D674N | increases | no change
3 | Q23 Env: D674N | increases | decreases
